In patent publication US5578310A, “Topical bioadhesive ointment compositions and their use in wound healing” (Berlex Laboratories Inc., priority 1994, dated 1996):

Key:
[1] = In vivo uptake and tissue distribution of 125I-TGFα from TJ-TGFα formulation on wounded cheek pouch; design: species or system Golden Syrian hamsters; conditions: for Distribution of 125I-TGFα in the Tissues: Small Intestine / Distribution of 125I-TGFα in the Tissues: Stomach / Distribution of 125I-TGFα in the Tissues: Submaxillary Gland / Distribution of 125I-TGFα in the Tissues: Thyroid / Distribution of 125I-TGFα in the Tissues: Tongue / Distribution of 125I-TGFα in the Tissues: Blood / Distribution of 125I-TGFα in the Tissues: Cecum / Distribution of 125I-TGFα in the Tissues: Colon / Distribution of 125I-TGFα in the Tissues: Esophagus / Distribution of 125I-TGFα in the Tissues: Kidney / Distribution of 125I-TGFα in the Tissues: Liver: cheek pouch wound; for Distribution of 125I-TGFα in the Tissues: Cheek Pouch: right-hand side cheek pouch (application site); for Distribution of 125I-TGFα in the Tissues: Skin: 25 cm^2 skin on back
Excerpt: (§1) The TGFα-containing ointment composition of Example 2 (TJ-TGFα formulation) was subjected, both in vitro and in vivo, to evaluation to meet the therapeutical requirements for oral mucositis. The in vitro evaluation included TGFα release and extraction from the composition, autoclave sterilizability and the bioactivity and stability of TGFα in the composition. The in vivo evaluation included TGFα uptake and tissue distribution of absorbed TGFα from hamster's cheek pouch.
(§2) B. The in vivo uptake of TGFα from the TJ-TGFα formulation was determined in Golden Syrian hamsters, female, approximately 150 g using an ^125 I-TGFα formulation (specific activity-45 μci/μg), the hamster's cheek pouch having a mechanically created wound. A pharmacokinetic study of tissue distribution of TGFα absorbed by the hamsters was also conducted. The methods employed were as follows:
(§3) 1. Fast hamsters overnight.
(§4) 2. Anesthetize hamsters by I.M. injection of ketamine HCl.
(§5) 3. Create a 2 mm diameter wound on the right-hand side of hamster's cheek pouch by a biopsy punch.
(§6) 4. Following the removal of the debridement and blood clot, administer 20 μl TJ-TGFα formulation containing 26 μci 125I-TGFα onto the wound area by a Gilson Microman.
(§7) 5. Keep the hamsters in their cages and give no water or food during the course of 6 hours study.
(§8) 6. Select three hamsters at time 15 minutes, 30 minutes, 1 hour, 2 hours, 4 hours and 6 hours and select one hamster at 24 hours for TGFα uptake and tissue distribution study.
7. Punch a needle into the hamster's heart and withdrawn 1 ml blood by a 5 ml syringe.
(§9) 8. Sacrifice hamster by inhalation of an overdose of carbon dioxide vapor from dry ice in a closed chamber.
(§10) 9. Immediately after sacrificing, remove the liver, kidney, thyroid, submaxillary gland, esophagus, stomach, small intestine, cecum, colon, 25 cm^2 skin on back, tongue and right-hand side of cheek pouch.
(§11) 11. Count the CPM of ^125 I-TGFα that distributed in the hamster's tissue and GI contents.

[2] = In vivo distribution of 125I-TGFα in the GI contents from TJ-TGFα formulation on wounded cheek pouch; design: species or system Golden Syrian hamsters; conditions: cheek pouch wound
Excerpt: as §1, §2, §3, §4, §5, §6, §7, §8, §9, §10
10. Flush the contents of esophagus, stomach, small intestine and cecum with water and collect the contents separately into a test tube.
as §11

^125 I-TGFα: 125I-labelled TGFα (specific activity 45 μci/μg) administered in TJ-TGFα formulation onto the hamster cheek pouch wound
Distribution of 125I-TGFα in the Tissues: Small Intestine ([1]; 4 hrs.): 0.12%
Distribution of 125I-TGFα in the Tissues: Stomach ([1]; 4 hrs.): 0.74%
Distribution of 125I-TGFα in the Tissues: Submaxillary Gland ([1]; 4 hrs.): 0.42%
Distribution of 125I-TGFα in the Tissues: Thyroid ([1]; 4 hrs.): 0.39%
Distribution of 125I-TGFα in the Tissues: Tongue ([1]; 4 hrs.): 3.37%
Distribution of 125I-TGFα in the Tissues: Cheek Pouch ([1]; 4 hrs.): 74%
Distribution of 125I-TGFα in the Tissues: Skin ([1]; 6 hrs.): 0.13%
Distribution of 125I-TGFα in the Tissues: Blood ([1]; 6 hrs.): 0.13%
Distribution of 125I-TGFα in the Tissues: Cecum ([1]; 6 hrs.): 0.08%
Distribution of 125I-TGFα in the Tissues: Colon ([1]; 6 hrs.): 0.12%
Distribution of 125I-TGFα in the Tissues: Esophagus ([1]; 6 hrs.): 0.27%
Distribution of 125I-TGFα in the Tissues: Kidney ([1]; 6 hrs.): 0.27%
Distribution of 125I-TGFα in the Tissues: Liver ([1]; 6 hrs.): 0.24%
Distribution of 125I-TGFα in the Tissues: Small Intestine ([1]; 6 hrs.): 0.15%
Distribution of 125I-TGFα in the Tissues: Stomach ([1]; 6 hrs.): 1.06%
Distribution of 125I-TGFα in the Tissues: Submaxillary Gland ([1]; 6 hrs.): 0.77%
Distribution of 125I-TGFα in the Tissues: Thyroid ([1]; 6 hrs.): 0.88%
Distribution of 125I-TGFα in the Tissues: Tongue ([1]; 6 hrs.): 1.25%
Distribution of 125I-TGFα in the Tissues: Cheek Pouch ([1]; 6 hrs.): 84%
Distribution of 125I-TGFα in the Tissues: Skin ([1]; 24 hrs.): 0.13%
Distribution of 125I-TGFα in the Tissues: Blood ([1]; 24 hrs.): 0.22%
Distribution of 125I-TGFα in the Tissues: Cecum ([1]; 24 hrs.): 0.05%
Distribution of 125I-TGFα in the Tissues: Colon ([1]; 24 hrs.): 1.57%
Distribution of 125I-TGFα in the Tissues: Esophagus ([1]; 24 hrs.): 0.04%
Distribution of 125I-TGFα in the Tissues: Kidney ([1]; 24 hrs.): 0.24%
Distribution of 125I-TGFα in the Tissues: Liver ([1]; 24 hrs.): 0.59%
Distribution of 125I-TGFα in the Tissues: Small Intestine ([1]; 24 hrs.): 0.40%
Distribution of 125I-TGFα in the Tissues: Stomach ([1]; 24 hrs.): 1.23%
Distribution of 125I-TGFα in the Tissues: Submaxillary Gland ([1]; 24 hrs.): 0.77%
Distribution of 125I-TGFα in the Tissues: Thyroid ([1]; 24 hrs.): 2.84%
Distribution of 125I-TGFα in the Tissues: Tongue ([1]; 24 hrs.): 0.66%
Distribution of 125I-TGFα in the Tissues: Cheek Pouch ([1]; 24 hrs.): 21%
Distribution of 125I-TGFα in the GI Contents: Cecum ([2]; 15 min.): 0.003%
Distribution of 125I-TGFα in the GI Contents: Esophagus ([2]; 15 min.): 0.00005%
Distribution of 125I-TGFα in the GI Contents: Small Intestine ([2]; 15 min.): 0.003%
Distribution of 125I-TGFα in the GI Contents: Stomach ([2]; 15 min.): 0.03%
Distribution of 125I-TGFα in the GI Contents: Cecum ([2]; 0.5 hrs.): 0.01%
Distribution of 125I-TGFα in the GI Contents: Esophagus ([2]; 0.5 hrs.): 0.01%
Distribution of 125I-TGFα in the GI Contents: Small Intestine ([2]; 0.5 hrs.): 0.01%
Distribution of 125I-TGFα in the GI Contents: Stomach ([2]; 0.5 hrs.): 0.056%
Distribution of 125I-TGFα in the GI Contents: Cecum ([2]; 1 hr.): 0.02%
Distribution of 125I-TGFα in the GI Contents: Esophagus ([2]; 1 hr.): 0.002%
Distribution of 125I-TGFα in the GI Contents: Small Intestine ([2]; 1 hr.): 0.02%
Distribution of 125I-TGFα in the GI Contents: Stomach ([2]; 1 hr.): 0.20%
Distribution of 125I-TGFα in the GI Contents: Cecum ([2]; 2 hrs.): 0.02%
Distribution of 125I-TGFα in the GI Contents: Esophagus ([2]; 2 hrs.): 0.01%
Distribution of 125I-TGFα in the GI Contents: Small Intestine ([2]; 2 hrs.): 0.02%
Distribution of 125I-TGFα in the GI Contents: Stomach ([2]; 2 hrs.): 0.40%
Distribution of 125I-TGFα in the GI Contents: Cecum ([2]; 4 hrs.): 0.04%
Distribution of 125I-TGFα in the GI Contents: Esophagus ([2]; 4 hrs.): 0.37%
Distribution of 125I-TGFα in the GI Contents: Small Intestine ([2]; 4 hrs.): 0.06%
Distribution of 125I-TGFα in the GI Contents: Stomach ([2]; 4 hrs.): 4.1%
Distribution of 125I-TGFα in the GI Contents: Cecum ([2]; 6 hrs.): 0.05%
Distribution of 125I-TGFα in the GI Contents: Esophagus ([2]; 6 hrs.): 0.27%
Distribution of 125I-TGFα in the GI Contents: Small Intestine ([2]; 6 hrs.): 0.05%
Distribution of 125I-TGFα in the GI Contents: Stomach ([2]; 6 hrs.): 7.8%
Distribution of 125I-TGFα in the GI Contents: Cecum ([2]; 24 hrs.): 2.63%
Distribution of 125I-TGFα in the GI Contents: Esophagus ([2]; 24 hrs.): 0.01%
Distribution of 125I-TGFα in the GI Contents: Small Intestine ([2]; 24 hrs.): 0.52%
Distribution of 125I-TGFα in the GI Contents: Stomach ([2]; 24 hrs.): 5.5%
